In patent US7732162:

What was measured:
[Gln^1]-GnRH = system: T1, [Gln^1]-GnRH
T1 sequence: QHWSYGLRPG

H-Gln-Asn-Gly-Ile-NH2 = system: T2, H-Gln-Asn-Gly-Ile-NH2
T2 sequence: QNGI

H-Gln-Lys-Arg-Leu-NH2 = system: T3, H-Gln-Lys-Arg-Leu-NH2
T3 sequence: QKRL

H-Gln-Gly-Pro-OH = system: T4, H-Gln-Gly-Pro-OH
T4 sequence: QGP

H-Gln-Glu-Asp-Leu-NH2 = system: T5, H-Gln-Glu-Asp-Leu-NH2
T5 sequence: QEDL

H-Gln-Ser-Tyr-Phe-NH2 = system: T6, H-Gln-Ser-Tyr-Phe-NH2
T6 sequence: QSYF

H-Gln-Glu-Tyr-Phe-NH2 = system: T7, H-Gln-Glu-Tyr-Phe-NH2
T7 sequence: QEYF

H-Gln-Pro-Tyr-Phe-NH2 = system: T8, H-Gln-Pro-Tyr-Phe-NH2
T8 sequence: QPYF

H-Gln-Ala-NH2 = system: T9, H-Gln-Ala-NH2
T9 sequence: QA

[1] = system: T10, H-Gln-cyclo(Nε-Lys-Arg-Pro-Ala-Gly-Phe)
T10 sequence: QKRPAGF

[Gln^1]-FPP = system: T11, [Gln^1]-FPP
T11 sequence: QEP

[2] = system: T12, H-Gln-Ala-Ala-Ser-Ala-Ala-NH2
T12 sequence: QAASAA

H-Gln-Glu-Ala-Ala-NH2 = system: T13, H-Gln-Glu-Ala-Ala-NH2
T13 sequence: QEAA

H-Gln-Gly-OH = system: T14, H-Gln-Gly-OH
T14 sequence: QG

H-Gln-His-Tyr-Phe-NH2 = system: T15, H-Gln-His-Tyr-Phe-NH2
T15 sequence: QHYF

[Gln^3]-glucagon(3-29) = [Gln^3]-glucagon(3-29) (UniProt P01275)
Sequence of [Gln^3]-glucagon(3-29) (P01275 whole entry, looked up, tested part not stated): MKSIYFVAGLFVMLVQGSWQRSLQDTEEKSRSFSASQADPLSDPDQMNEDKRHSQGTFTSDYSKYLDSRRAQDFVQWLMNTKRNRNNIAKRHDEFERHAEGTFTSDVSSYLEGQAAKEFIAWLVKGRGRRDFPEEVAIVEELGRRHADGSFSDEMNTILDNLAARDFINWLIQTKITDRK

H-Gln-Glu-OH = system: T16, H-Gln-Glu-OH
T16 sequence: QE

H-Gln-Ala-Ala-NH2 = system: T17, H-Gln-Ala-Ala-NH2
T17 sequence: QAA

H-Gln-Glu-Tyr-Ala-NH2 = system: T18, H-Gln-Glu-Tyr-Ala-NH2
T18 sequence: QEYA

H-Gln-Trp-Ala-NH2 = system: T19, H-Gln-Trp-Ala-NH2
T19 sequence: QWA

[Gln^1]-Gastrin = system: T20, [Gln^1]-Gastrin
T20 sequence: QGPWLEEEEEAYGWMDF

H-Gln-Arg-Tyr-Phe-NH2 = system: T21, H-Gln-Arg-Tyr-Phe-NH2
T21 sequence: QRYF

H-Gln-Gln-Tyr-Phe-NH2 = system: T22, H-Gln-Gln-Tyr-Phe-NH2
T22 sequence: QQYF

[3] = system: T23, H-Gln-Ala-Ala-Ala-Ala-NH2
T23 sequence: QAAAA

[4] = system: T24, H-βhomoGln-Phe-Lys-Arg-Leu-Ala-NH2
T24 sequence: QFKRLA

H-Gln-Glu-Tyr-NH2 = system: T25, H-Gln-Glu-Tyr-NH2
T25 sequence: QEY

H-Gln-Phe-Ala-NH2 = system: T26, H-Gln-Phe-Ala-NH2
T26 sequence: QFA

H-Gln-Glu-Ala-Phe-NH2 = system: T27, H-Gln-Glu-Ala-Phe-NH2
T27 sequence: QEAF

[5] = system: T28, [Gln^5]-substance P(5-11)
T28 sequence: QQFFGLM

H-Gln-Tyr-Ala-OH = system: T29, H-Gln-Tyr-Ala-OH
T29 sequence: QYA

H-Gln-Gln-OH = system: T30, H-Gln-Gln-OH
T30 sequence: QQ

H-Gln-Ala-OH = system: T31, H-Gln-Ala-OH
T31 sequence: QA

H-Gln-Arg-Gly-Ile-NH2 = system: T32, H-Gln-Arg-Gly-Ile-NH2
T32 sequence: QRGI

## QC from papaya latex (Carica papaya glutaminyl cyclase)
[Gln^1]-GnRH
  KM: 169 µM
H-Gln-Asn-Gly-Ile-NH2
  KM: 153 µM
H-Gln-Lys-Arg-Leu-NH2
  KM: 118 µM
  KM (0.05 M Tricine-NaOH, pH 8.0): 0.102 mM
  KM (0.05 M Tricine-NaOH, pH 8.0, 0.5 M KCl): 0.053 mM
H-Gln-Gly-Pro-OH
  KM: 333 µM
H-Gln-Glu-Asp-Leu-NH2
  KM: 107 µM
  KM (0.05 M Tricine-NaOH, pH 8.0): 0.109 mM
  KM (0.05 M Tricine-NaOH, pH 8.0, 0.5 M KCl): 0.094 mM
H-Gln-Ser-Tyr-Phe-NH2
  KM: 135 µM
H-Gln-Glu-Tyr-Phe-NH2
  KM: 100 µM
H-Gln-Pro-Tyr-Phe-NH2
  KM: 149 µM
H-Gln-Ala-NH2
  KM: 212 µM
[1]
  KM: KM-values of 240±14 µM and 133±5 µM for human and papaya QC, respectively
[Gln^1]-FPP
  KM: 232 µM
[2]
  KM: 216 µM
H-Gln-Glu-Ala-Ala-NH2
  KM: 102 µM
H-Gln-Gly-OH
  KM: 641 µM
H-Gln-His-Tyr-Phe-NH2
  KM: 92 µM
[Gln^3]-glucagon(3-29)
  substrate conversion (kcat/KM column): *
H-Gln-Glu-OH
  KM: 106 µM
  KM (0.05 M Tricine-NaOH, pH 8.0): 0.098 mM
  KM (0.05 M Tricine-NaOH, pH 8.0, 0.5 M KCl): 0.094 mM
H-Gln-Ala-Ala-NH2
  KM: 164 µM
H-Gln-Glu-Tyr-Ala-NH2
  KM: 113 µM
H-Gln-Trp-Ala-NH2
  KM: 78 µM
  KM (0.05 M Tricine-NaOH, pH 8.0): 0.079 mM
  KM (0.05 M Tricine-NaOH, pH 8.0, 0.5 M KCl): 0.072 mM
[Gln^1]-Neurotensin
  KM: 40 µM
[Gln^1]-Gastrin
  KM: 34 µM
H-Gln-Arg-Tyr-Phe-NH2
  KM: 124 µM
H-Gln-Gln-Tyr-Phe-NH2
  KM: 45 µM
[3]
  KM: 197 µM
[4]
  KM: KM=3.1±0.3 mM
H-Gln-Glu-Tyr-NH2
  KM: 103 µM
H-Gln-Phe-Ala-NH2
  KM: 111 µM
H-Gln-Glu-Ala-Phe-NH2
  KM: 81 µM
[5]
  substrate conversion (kcat/KM column): *
H-Gln-Tyr-Ala-OH
  KM: 63 µM
H-Gln-Gln-OH
  KM: 44 µM
H-Gln-Ala-OH
  KM: 158 µM
  KM (0.05 M Tricine-NaOH, pH 8.0): 0.137 mM
  KM (0.05 M Tricine-NaOH, pH 8.0, 0.5 M KCl): 0.143 mM
H-Gln-Arg-Gly-Ile-NH2
  KM: 123 µM
  KM (0.05 M Tricine-NaOH, pH 8.0): 0.106 mM
  KM (0.05 M Tricine-NaOH, pH 8.0, 0.5 M KCl): 0.065 mM
